Data on 1 protein can be found in paper PMC3989768, “Activation of the γ-Tubulin Complex by the Mto1/2 Complex” (Current Biology, 2014).

The data set concerns the molecule itself. The data set is described as follows: glycerol density-gradient centrifugation; material partially purified by Mto2-SZZ (IgG beads, TEV cleavage) from mto1[9A1-bonsai]-GFP or mto1Δ lysates, before and after 10-fold concentration; isokinetic glycerol gradient, 2.5 hr or 45 min; quantitative western blotting.

B1: Mto2-S (the TEV protease cleavage product of Mto2-SZZ) (natural protein, Schizosaccharomyces pombe, UniProt Q9USP7 1-397, looked up)
chain: MSEHNYQSDREVAEDPFLNYEASANQLSSNSRESTPRGSPWRAGMRSASLMTEPLEDSMYSDNNYLDNGVSFTKDENPLYSPSWPSLADANVNSMKSNNAIQEHKAAKFVSEKSLEKVSTADNNLVLQELENLRERLNQVELQLSERPSSYLGYHNNLSPYRSPNSYPSLLPSTHSPHSPAPLSTMQTALMRLRTYHPSPIILKPVEQAVNHAITLVNTSPSSVVDALCRSLAELCLGLVQEAIDASILSQQESSNSLDLVRHTPPLNYTSSVDSSPQRMASDSYGRPSLHLNDPFPSVDLQSNELSHHNVRTTLFSDDSRFHSKIHTHSTPPSQMYSAASHFRYRSDPSTRHVSNSTNKSSLHPSPTSLRVAHPIIPQRASPASQSFPSLQDTPSP
notes: Mto2, Schizosaccharomyces pombe; source: S. pombe, partially purified (immunoglobulin G beads, TEV protease cleavage), enriched 3,400-fold
Regarding B1, the binding result is recorded as “binds”.
